B1: Endolysin, P03706 (parent)
chain: MVEINNQRKAFLDMLAWSEGTDNGRQKTRNHGYDVIVGGELFTDYSDHPRKLVTLNPKLKSTGAGRYQLLSRWWDAYRKQLGLKDFSPKSQDAVALQQIKERGALPMIDRGDIRQAIDRCSNIWASLPGAGYGQFEHKADSLIAKFKEAGGTVREIDV

Variants of: B1
Conditions: Escherichia phage lambda, pH 7, Thermal, Fluorescence, phosphate buffer 100 mM, reversible: yes, structure 1AM7, whole UniProt chain shown; for ddG of mutation (higher = less stable) / unfolding free energy: 25 °C

Variant	ddG of mutation (higher = less stable) [kcal/mol]	unfolding free energy [kcal/mol]	Tm [°C]	change of melting temperature, mutant - wild type (higher = more stable) [°C]	unfolding enthalpy (van 't Hoff) [kcal/mol]
MVEINNQRKAFLDMLAWSEGTDNGRQKTRNDGYDVIVGGELFTDYSDHPRKLVTLNPKLKSTGAGRYQLLSRWWDAYRKQLGLKDFSPKSQDAVALQQIKERGALPMIDRGDIRQAIDRCSNIWASLPGAGYGQFEHKADSLIAKFKEAGGTVREIDV	1.6	5.5	46.1	-6.2	99.8
MVEINNQRKAFLDMLAWSEGTDNGRQKTRNNGYDVIVGGELFTDYSDHPRKLVTLNPKLKSTGAGRYQLLSRWWDAYRKQLGLKDFSPKSQDAVALQQIKERGALPMIDRGDIRQAIDRCSNIWASLPGAGYGQFENKADSLIAKFKEAGGTVREIDV	-1.8	8.9			
MVEINNQRKAFLDMLAWSEGTDNGRQKTRNHGYDVIVGGELFTDYSDNPRKLVTLNPKLKSTGAGRYQLLSRWWDAYRKQLGLKDFSPKSQDAVALQQIKERGALPMIDRGDIRQAIDRCSNIWASLPGAGYGQFEHKADSLIAKFKEAGGTVREIDV	5	2.1	30.1	-22.2	60.8
